{"source": "patent US20120058906A1", "about": "(published 2012);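 also: blank spot per well as comparator with Hit at signal to blank ratio of 4 or more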", "binders": {"B1": {"name": "Fab VH6-1_IGHD3-3*01_IGHJ4*01 & V4-3_IGLJ4*01 (Fab, V domains shown)", "VH": "QVQLQQSGPGLVKPSQTLSLTCAISGDSVSSNSAAWNWIRQSPSRGLEWLGRTYYRSKWYNDYAVSVKSRITINPDTSKNQFSLQLNSVTPEDTAVYYCAREYYDFWSGYYTDYFDYWGQGTLVTVSS", "VL": "QPVLTQPTSLSASPGASARLTCTLRSGINLGSYRIFWYQQKPESPPRYLLSYYSDSSKHQGSGVPSRFSGSKDASSNAGILVISGLQSEDEADYYCMIWHSSASFVFGGGTQLIIL", "notes": "Tested as a Fab made in E. coli; also called IGHV6-1*01"}, "B2": {"name": "Fab VH5-51_IGHD5-18*01>3_IGHJ4*01_G100K & V3-4_IGLJ1*01 (Fab, V domains shown)", "VH": "EVQLVQSGAEVKKPGESLKISCKGSGYSFTSYWIGWVRQMPGKGLEWMGIIYPGDSDTRYSPSFQGQVTISADKSISTAYLQWSSLKASDTAMYYCARRKYSYGYDYFDYWGQGTLVTVSS", "VL": "QTVVTQEPSFSVSPGGTVTLTCGLSSGSVSTSYYPSWYQQTPGQAPRTLIYSTNTRSSGVPDRFSGSILGNKAALTITGAQADDESDYYCVLYMGSGISYVFGTGTKVTVL", "notes": "It was expressed as a Fab: CH1 with tags from Plasmid A and lambda CL from Plasmid E; also called Fab No. 22"}, "B3": {"name": "Fab VH5-51_IGHD5-18*01>3_IGHJ4*01_G100R & V3-4_IGLJ1*01 (Fab, V domains shown)", "VH": "EVQLVQSGAEVKKPGESLKISCKGSGYSFTSYWIGWVRQMPGKGLEWMGIIYPGDSDTRYSPSFQGQVTISADKSISTAYLQWSSLKASDTAMYYCARRRYSYGYDYFDYWGQGTLVTVSS", "VL": "QTVVTQEPSFSVSPGGTVTLTCGLSSGSVSTSYYPSWYQQTPGQAPRTLIYSTNTRSSGVPDRFSGSILGNKAALTITGAQADDESDYYCVLYMGSGISYVFGTGTKVTVL", "notes": "It was expressed as a Fab: CH1 with tags from Plasmid A and lambda CL from Plasmid E; also called Fab No. 23"}, "B4": {"name": "Fab VH1-46_IGHD6-6*01_IGHJ1*01_S102A_S103P_S104F & L6_IGKJ1*01_S31K (Fab, V domains shown)", "VH": "QVQLVQSGAEVKKPGASVKVSCKASGYTFTSYYMHWVRQAPGQGLEWMGIINPSGGSTSYAQKFQGRVTMTRDTSTSTVYMELSSLRSEDTAVYYCAREEYAPFSAEYFQHWGQGTLVTVSS", "VL": "EIVLTQSPATLSLSPGERATLSCRASQSVSKYLAWYQQKPGQAPRLLIYDASNRATGIPARFSGSGSGTDFTLTISSLEPEDFAVYYCQQRSNWPPWTFGQGTKVEIKR", "notes": "Fab"}}, "key": {"[1]": {"target": "T1, Recombinant Human DLL4 (R&D Systems Cat#1506-D4/CF) (human, UniProt Q9NR61 27-524)", "T1 construct": "Bought recombinant protein; also called delta-like protein 4; rHuman DLL4", "experiment": "ECL (MSD Multi-Spot) binding assay, antigen spotted on plate; Fab 60 nM; blank spot 237"}, "[2]": {"target": "T2, rHuman Notch-1/Fc Chimera, CF (R&D Systems Cat#3647-TK) (human, UniProt P46531 19-526)", "T2 construct": "Bought Fc chimera; Fc part of the bought chimera not given", "experiment": "ECL (MSD Multi-Spot) binding assay, antigen spotted on plate; Fab 60 nM; blank spot 237"}, "[3]": {"target": "T3, rHuman Erythropoietin R/Fc Chimera, CF (R&D Systems Cat#963-ER) (human, UniProt P19235 25-250)", "T3 construct": "Bought Fc chimera; also called EPO R/Fc; Epo R; Fc part of the bought chimera not given", "T3 sequence": "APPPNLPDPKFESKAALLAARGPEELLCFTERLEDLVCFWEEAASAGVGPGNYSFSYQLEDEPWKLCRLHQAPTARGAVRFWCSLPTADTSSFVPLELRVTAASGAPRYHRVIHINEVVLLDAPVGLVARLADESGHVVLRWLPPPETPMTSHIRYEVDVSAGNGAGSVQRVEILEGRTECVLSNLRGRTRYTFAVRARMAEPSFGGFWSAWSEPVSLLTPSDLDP", "experiment": "ECL (MSD Multi-Spot) binding assay, antigen spotted on plate; Fab 60 nM; blank spot 237"}, "[4]": {"target": "T4, rHuman CD44/Fc Chimera, CF (R&D Systems Cat#3660-CD) (human, UniProt P16070 21-220)", "T4 construct": "Bought Fc chimera; Fc part of the bought chimera not given", "experiment": "ECL (MSD Multi-Spot) binding assay, antigen spotted on plate; Fab 60 nM; blank spot 237"}, "[5]": {"target": "T5, rHuman P-Cadherin/Fc Chimera, CF (R&D Systems Cat#861-PC) (human, UniProt P22223 108-654)", "T5 construct": "Bought Fc chimera; also called CDH3; Fc part of the bought chimera not given", "experiment": "ECL (MSD Multi-Spot) binding assay, antigen spotted on plate; Fab 60 nM; blank spot 237"}, "[6]": {"target": "T6, rHuman ErbB2/Fc Chimera, CF (R&D Systems Cat#1129-ER) (human, UniProt P04626 23-652)", "T6 construct": "Purchased Fc chimera; also called HER2/neu; not shown: Fc portion of the purchased chimera", "experiment": "MSD ECL multi-spot plate, antigen immobilized; Fab 1000 nM; blank spot 630"}, "[7]": {"target": "T7, rHuman P-Cadherin/Fc Chimera, CF (R&D Systems Cat#861-PC) (human, UniProt P22223 108-654)", "T7 construct": "Purchased Fc chimera; not shown: Fc portion of the purchased chimera", "experiment": "MSD ECL multi-spot plate, antigen immobilized; Fab 1000 nM; blank spot 630"}, "[8]": {"target": "T8, rHuman HGF R/c-MET/Fc Chimera, CF (R&D Systems Cat#358-MT/CF) (human, UniProt P08581 25-932)", "T8 construct": "Purchased Fc chimera; also called HGF R/Fc; not shown: Fc portion of the purchased chimera", "experiment": "MSD ECL multi-spot plate, antigen immobilized; Fab 1000 nM; blank spot 630"}, "[9]": {"target": "T9, rHuman IGF-1 sR (IGF-1 sR), CF (R&D Systems Cat#391-GR) (human, UniProt P08069 31-932)", "T9 construct": "Purchased soluble receptor; also called insulin-like growth factor-1 soluble receptor; IGF-R1", "experiment": "MSD ECL multi-spot plate, antigen immobilized; Fab 0.32 nM; blank spot 513"}, "[10]": {"target": "T6, rHuman ErbB2/Fc Chimera, CF (R&D …)", "experiment": "MSD ECL multi-spot plate, antigen immobilized; Fab 0.32 nM; blank spot 513"}, "[11]": {"target": "T7, rHuman P-Cadherin/Fc Chimera, CF (R&D …)", "experiment": "MSD ECL multi-spot plate, antigen immobilized; Fab 0.32 nM; blank spot 513"}, "[12]": {"target": "T10, rHuman Notch-1/Fc Chimera, CF (R&D Systems Cat#3647-TK) (human, UniProt P46531 19-526)", "T10 construct": "Purchased Fc chimera; not shown: Fc portion of the purchased chimera", "experiment": "MSD ECL multi-spot plate, antigen immobilized; Fab 0.32 nM; blank spot 513"}, "[13]": {"target": "T11, rHuman EGF R/Fc Chimera, CF (R&D Systems Cat#344-ER) (human, UniProt P00533 25-645)", "T11 construct": "Purchased Fc chimera; not shown: Fc portion of the purchased chimera", "experiment": "MSD ECL multi-spot plate, antigen immobilized; Fab 0.32 nM; blank spot 513"}, "[14]": {"target": "T12, Recombinant Human DLL4 (R&D Systems Cat#1506-D4/CF) (human, UniProt Q9NR61 27-524)", "T12 construct": "Purchased recombinant protein; also called delta-like protein 4", "experiment": "MSD ECL multi-spot plate, antigen immobilized; Fab 0.32 nM; blank spot 513"}, "[15]": {"target": "T13, rHuman CD44/Fc Chimera, CF (R&D Systems Cat#3660-CD) (human, UniProt P16070 21-220)", "T13 construct": "Purchased Fc chimera; not shown: Fc portion of the purchased chimera", "experiment": "MSD ECL multi-spot plate, antigen immobilized; Fab 0.32 nM; blank spot 513"}, "[16]": {"target": "T8, rHuman HGF R/c-MET/Fc Chimera, CF (R&D …)", "experiment": "MSD ECL multi-spot plate, antigen immobilized; Fab 0.32 nM; blank spot 513"}, "[17]": {"target": "T14, rHuman Erythropoietin R/Fc Chimera, CF (R&D Systems Cat#963-ER) (human, UniProt P19235 25-250)", "T14 construct": "Purchased Fc chimera; also called EPO R/Fc; Epo R; not shown: Fc portion of the purchased chimera", "T14 sequence": "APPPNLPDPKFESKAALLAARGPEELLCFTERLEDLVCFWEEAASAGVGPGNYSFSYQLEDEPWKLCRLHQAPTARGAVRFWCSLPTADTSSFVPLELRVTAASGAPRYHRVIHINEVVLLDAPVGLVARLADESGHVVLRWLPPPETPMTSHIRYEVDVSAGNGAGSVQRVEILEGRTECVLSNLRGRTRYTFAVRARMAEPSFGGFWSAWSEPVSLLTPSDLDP", "experiment": "MSD ECL multi-spot plate, antigen immobilized; Fab 0.32 nM; blank spot 513"}, "[18]": {"target": "T15, rHuman HGF R/c-MET/Fc Chimera, CF (R&D Systems Cat#358-MT/CF) (human, UniProt P08581 25-932)", "T15 construct": "Bought Fc chimera; also called HGF R/Fc; not shown: Fc of the bought chimera", "experiment": "ECL (MSD multi-spot), antigen on plate, Fab 10 nM"}, "[19]": {"target": "T16, rHuman ErbB2/Fc Chimera, CF (R&D Systems Cat#1129-ER) (human, UniProt P04626 23-652)", "T16 construct": "Bought Fc chimera; also called HER2/neu; not shown: Fc of the bought chimera", "experiment": "ECL (MSD multi-spot), antigen on plate, Fab 10 nM"}}}
{"binder": "B1", "values": [{"measurement": "ECL signal", "setting": "[1]", "result": 875}, {"measurement": "ECL signal", "setting": "[2]", "result": 415}, {"measurement": "ECL signal", "setting": "[3]", "result": 423}, {"measurement": "ECL signal", "setting": "[4]", "result": 434}, {"measurement": "ECL signal", "setting": "[5]", "result": 372}]}
{"binder": "B2", "values": [{"measurement": "ECL signal", "setting": "[6]", "result": 1250, "unit": "ECL signal"}, {"measurement": "ECL signal", "setting": "[7]", "result": 1040, "unit": "ECL signal"}, {"measurement": "ECL signal", "setting": "[8]", "result": 1200, "unit": "ECL signal"}]}
{"binder": "B3", "values": [{"measurement": "ECL signal", "setting": "[9]", "result": 1250, "unit": "ECL signal"}, {"measurement": "ECL signal", "setting": "[10]", "result": 1480, "unit": "ECL signal"}, {"measurement": "ECL signal", "setting": "[11]", "result": 656, "unit": "ECL signal"}, {"measurement": "ECL signal", "setting": "[12]", "result": 983, "unit": "ECL signal"}, {"measurement": "ECL signal", "setting": "[13]", "result": 1220, "unit": "ECL signal"}, {"measurement": "ECL signal", "setting": "[14]", "result": 1210, "unit": "ECL signal"}, {"measurement": "ECL signal", "setting": "[15]", "result": 877, "unit": "ECL signal"}, {"measurement": "ECL signal", "setting": "[16]", "result": 1290, "unit": "ECL signal"}, {"measurement": "ECL signal", "setting": "[17]", "result": 851, "unit": "ECL signal"}]}
{"binder": "B4", "values": [{"measurement": "ECL signal", "setting": "[18]", "result": 271, "unit": "ECL signal"}, {"measurement": "ECL signal", "setting": "[19]", "result": 303, "unit": "ECL signal"}]}
